Measured values from patent US6984657B1, “Indole derivatives as MCP-1 receptor antagonists” (AstraZeneca AB, priority 2000, dated 2006).
pEC50, pIC50, pKd: −log10 of the molar value.

Key:
MCP-1 receptor B (CCR2B) = target: T1, MCP-1 receptor B (CCR2B) (Homo sapiens, UniProt P41597); test: hMCP-1 receptor binding assay (125I-MCP-1, CHO-CCR2B cell membranes); details: CHO-CCR2B membrane fragments
T1 construct: expressed in transfected cells; host or cells: CHO-K1 clone 7 (CHO-CCR2B), membrane fragments
T1 sequence (P41597 1-360 isoform P41597-2): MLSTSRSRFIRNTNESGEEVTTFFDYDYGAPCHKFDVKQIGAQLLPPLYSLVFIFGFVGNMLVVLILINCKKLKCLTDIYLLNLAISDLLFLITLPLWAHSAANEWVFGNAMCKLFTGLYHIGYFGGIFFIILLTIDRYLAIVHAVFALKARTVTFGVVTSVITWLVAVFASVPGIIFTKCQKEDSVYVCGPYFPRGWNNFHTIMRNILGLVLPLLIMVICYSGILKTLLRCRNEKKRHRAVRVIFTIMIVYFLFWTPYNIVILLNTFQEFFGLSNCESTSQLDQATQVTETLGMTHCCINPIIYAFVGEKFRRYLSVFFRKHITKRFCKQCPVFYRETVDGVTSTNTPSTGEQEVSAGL
Source text: The MCP-1 receptor B (CCR2B) cDNA was cloned by PCR from THP-1 cell RNA using suitable oligonucleotide primers based on the published MCP-1 receptor sequences (Charo et al., 1994, Proc. Natl. Acad. Sci. USA, 91, 2752). The resulting PCR products were cloned into vector PCR-II™ (In Vitrogen, San Diego, Calif.). Error free CCR2B cDNA was subcloned as a Hind III-Not I fragment into the eukaryotic expression vector pCNA3 (In Vitrogen) to generate pCDNA3/CC-CKR2A and pCDNA3/CCR2B respectively.
Linearised pCDNA3/CCR2B DNA was transfected into CHO-K1 cells by calcium phosphate precipitation (Wigler et al., 1979, Cell, 16, 777). Transfected cells were selected by the addition of Geneticin Sulphate (G418, Gibco BRL) at 1 mg/ml, 24 hours after the cells had been transfected. Preparation of RNA and Northern blotting were carried out as described previously (Needham et al., 1995, Prot. Express. Purific., 6, 134). CHO-K1 clone 7 (CHO-CCR2B) was identified as the highest MCP-1 receptor B expresser.
CHO-CCR2B cells were grown in DMEM supplemented with 10% foetal calf serum, 2 mM glutamine, 1× Non-Essential Amino Acids, 1× Hypoxanthine and Thymidine Supplement and Penicillin-Streptomycin (at 50 μg streptomycin/ml, Gibco BRL). Membrane fragments were prepared using cell lysis/differential centrifugation methods as described previously (Siciliano et al., 1990, J. Biol. Chem, 265, 19658). […]

THP-1 cells [1] = test: MCP-1 mediated calcium flux in THP-1 cells; type: cell-based, human; details: stimulation of THP-1 cells with hMCP-1, FURA-2, approximate; read-out: EC50 of the rise in [Ca2+]i
Experimental: The human monocytic cell line THP-1 was grown in a synthetic cell structure medium RPMI 1640 supplemented with 10% foetal calf serum, 6 mM glutamine and Penicillin-Streptomycin (at 50 μg streptomycin/ml, Gibco BRL). THP-1 cells were washed in HBSS (lacking Ca^2+ and Mg^2+)+1 mg/ml BSA and resuspended in the same buffer at a density of 3×10^6 cells/ml. The cells were then loaded with […] FURA-2/AM for 30 min at 37° C., washed twice in HBSS, and resuspended at 1×10^6 cells/ml. THP-1 cell suspension (0.9 ml) was added to a 5 ml disposable cuvette containing a magnetic stirrer bar and 2.1 ml of prewarmed (37° C.) HBSS containing 1 mg/ml BSA, 1 mM MgCl2 and 2 mM CaCl2. The cuvette was placed in a fluorescence spectrophotometer (Perkin Elmer, Norwalk, Conn.) and preincubated for 4 min at 37° C. with stirring. Fluorescence was recorded over 70 sec and cells were stimulated by addition of hMCP-1 to the cuvette after 10 sec. [Ca^2+]i was measured by excitation at 340 nm and 380 nm alternatively and subsequent measurement of the intensity of the fluorescence emission at 510 nm. […] Rmax is the maximal fluorescence ratio determined after addition of […] Ionomycin, Rmin is the minimal ratio determined by the subsequent addition of a Ca^2+ free solution containing 5 mM EGTA, and Sf2/Sb2 is the ratio of fluorescence value at 380 nm excitation determined at Rmin and Rmax, respectively. […]

THP-1 cells [2] = test: hMCP-1 mediated chemotaxis of THP-1 cells; type: cell-based, human; details: 2 h at 37° C.
Experimental: In vitro chemotaxis assays were performed using the human monocytic cell line THP-1. Cell migration through polycarbonate membranes was measured by enumerating those passing through either directly by Coulter counting or indirectly by use of a colourimetric viability assay measuring the cleavage of a tetrazolium salt by the mitochondrial respiratory chain (Scudiero D. A. et al. 1988, Cancer Res., 48, 4827-4833). […]
In an alternative form of the above assay, fluorescently tagged cells can be used in order to assist in end point detection. […] At the end of the incubation, cells are washed off the upper face of the filter with phosphate buffered saline, the filter removed from the plate and the number of cells attracted to either the underside of the filter or the lower well estimated by reading fluorescence at 485 nm excitation, 538 nm emission wavelengths (fmax, Molecular Devices). The data was input into a spreadsheet, corrected for any random migration in the absence of chemoattractant and the average fluorescence values, standard error of the mean, percentage inhibition and IC50 of compounds under test and significance tests can be calculated. […]

“MCP-1: Human Monocyte Chemoattractant Protein-1, a C—C chemokine; ligand of the CCR2 receptor” gave a pIC50 (MCP-1 receptor B (CCR2B); cold competition of unlabeled MCP-1 with 100 pM 125I-labeled MCP-1) of 9.96, a pKd (MCP-1 receptor B (CCR2B); equilibrium binding, room temperature) of 9.92 and a pEC50 (THP-1 cells [1]) of roughly 8.70. The “concentration of maximal cell migration (biphasic response)” value (THP-1 cells [2]) was 0.5-1.0 nm.
